The record followed here is patent US20190032032A1.

This assay concerns the target HSP90 (heat shock protein 90) (human (endogenous in the human Huh7.5-derived JFH-1 cell line)) (UniProt P07900). Put plainly: cell-based or functional assay.

In turn, “PEP1 peptide (hTERT-derived 16mer peptide, 611-…-626)” yielded a mean 50% inhibitory concentration (IC50) of HIV-1 viral particle production in MT-4 cells, p24 ELISA of 850 nM.
